Holding throughout (test): cell-based or functional assay
In test [1] the target is Omicron BA.2.12.1 spike on pseudovirus (SARS-CoV-2).
Test [2] deals with Omicron BQ.1.1 spike on pseudovirus (SARS-CoV-2).
The target of test [3] is Omicron BA.4/5 spike on pseudovirus (SARS-CoV-2).
The target of test [4] is Alpha spike (B.1.1.7) on pseudovirus (SARS-CoV-2).
For test [5], the target named is Gamma spike (P.1) on pseudovirus (SARS-CoV-2).
For test [6], the target named is Delta spike (B.1.617.2) on pseudovirus (SARS-CoV-2).
Test [7] addresses Omicron BA.2 spike on pseudovirus (SARS-CoV-2).
Test [8] concerns the target Omicron BA.2.75 spike on pseudovirus (SARS-CoV-2).
In test [9] the target is Omicron BA.4.6 spike on pseudovirus (SARS-CoV-2).
Test [10] addresses Beta spike (B.1.351) on pseudovirus (SARS-CoV-2).
The target in test [11] is Omicron BA.1 spike on pseudovirus (SARS-CoV-2).

Some results are limits rather than exact numbers.

Regarding Imdevimab (antibody), the IC50, pseudovirus neutralization in test [1] is 0.1 µg/mL; in test [2] it was more than 5 µg/mL; in test [3], 0.32 µg/mL; in [4], 0.0028 µg/mL; in test [5] it was 0.0019 µg/mL; in [6] it was 0.0035 µg/mL. Further, the IC50, pseudovirus neutralization was 0.51 µg/mL in [7]; more than 5 µg/mL in test [8]; 0.18 µg/mL in test [9]; 0.0028 µg/mL in test [10]; more than 5 µg/mL in [11].
For Tixagevimab (antibody), the IC50, pseudovirus neutralization in test [1] was 0.56 µg/mL; in [2], more than 5 µg/mL; in [3], more than 5 µg/mL; in [4] it was 0.0017 µg/mL; in test [5] it was 0.006 µg/mL; in test [6], 0.0008 µg/mL. Besides, the IC50, pseudovirus neutralization was more than 5 µg/mL in test [7]; 0.11 µg/mL in test [8]; more than 5 µg/mL in [9]; 0.0054 µg/mL in test [10]; 0.14 µg/mL in [11].
For Bebtelovimab (antibody), the IC50, pseudovirus neutralization in test [1] is 0.0023 µg/mL; in test [2], more than 5 µg/mL; in [3], 0.0014 µg/mL; in [4], 0.002 µg/mL; in test [5] it was 0.0017 µg/mL; in [6] it was 0.0015 µg/mL. The IC50, pseudovirus neutralization worked out at 0.0018 µg/mL in [7]; 0.0033 µg/mL in test [8]; 0.0013 µg/mL in test [9]; 0.0009 µg/mL in test [10]; 0.0023 µg/mL in [11].
In the case of Cilgavimab (antibody), the IC50, pseudovirus neutralization is 0.019 µg/mL in test [1]; more than 5 µg/mL in [2]; 0.018 µg/mL in [3]; 0.01 µg/mL in [4]; 0.005 µg/mL in [5]; 0.018 µg/mL in test [6]. Also, the IC50, pseudovirus neutralization in test [7] is 0.0091 µg/mL; in test [8] it was 0.055 µg/mL; in test [9], more than 5 µg/mL; in [10], 0.003 µg/mL; in test [11], 0.21 µg/mL.
Take Etesevimab (antibody): the IC50, pseudovirus neutralization in test [1] is more than 5 µg/mL; in test [2] it was more than 5 µg/mL; in test [3] it was more than 5 µg/mL; in test [4], 0.1 µg/mL; in [5] it was more than 5 µg/mL; in test [6], 0.0058 µg/mL. In addition, the IC50, pseudovirus neutralization in [7], in test [8], in test [9], in test [10] and in [11] was more than 5 µg/mL each time.
Consider Bamlanivimab (antibody), for which the IC50, pseudovirus neutralization is more than 5 µg/mL in test [1]; more than 5 µg/mL in [2]; more than 5 µg/mL in test [3]; 0.0034 µg/mL in test [4]; 1.4 µg/mL in [5]; 0.59 µg/mL in [6]. In addition, the IC50, pseudovirus neutralization in test [7] is more than 5 µg/mL; in test [8], more than 5 µg/mL; in [9], more than 5 µg/mL; in [10], 0.21 µg/mL; in test [11], more than 5 µg/mL.
Turning to Casirivimab (antibody), the IC50, pseudovirus neutralization in [1] is more than 5 µg/mL; in test [2], more than 5 µg/mL; in test [3], more than 5 µg/mL; in test [4] it was 0.0052 µg/mL; in [5] it was 0.18 µg/mL; in [6], 0.0027 µg/mL. Also, the IC50, pseudovirus neutralization was more than 5 µg/mL in [7]; 0.44 µg/mL in test [8]; more than 5 µg/mL in [9]; 0.094 µg/mL in test [10]; more than 5 µg/mL in [11].

(Values after patent publication US20240158479A1.)
